Reference: PMC10679481

How the values were obtained:
PKA-C-eGFP [1] = biological target: PKA-C-eGFP (UniProt P17612); experiment: co-IP; nanobead-based sc-SiMPull: single HEK293T cells coexpressing PKA-C-eGFP and PKA-R-HA lysed in situ in microwells, anti-GFP-coated nanobeads, PKA-R-HA visualised by immunostaining with anti-HA and fluorophore-conjugated 2nd antibody
PKA-C-eGFP [2] = biological target: PKA-C-eGFP (UniProt P17612); experiment: co-IP; nanobead-based sc-SiMPull: single HEK293T cells trapped in microwells and lysed in situ, anti-GFP-coated magnetic nanobeads capture PKA-C-eGFP, mCherry seen directly by confocal microscopy; control conditions (no cAMP); room temperature

| Substance | percent of GFP spots colocalized with the anti-HA (Alexa 561) spots (PKA-C-eGFP [1]) | percent of GFP and mCherry signals colocalized (PKA-C-eGFP [2]) |
| --- | --- | --- |
| PKA-R-HA (from UniProt P10644 1-381) (natural protein) | 60% | – |
| PKA-R-mCherry (from UniProt P10644 1-381) (natural protein) | – | 70% |
